# Columns and labels:
# Type in all cases: biochemical
# [1] = Chloromethane dehalogenation (Purpald detection of formaldehyde); settings: chloromethane, cofactor regeneration system
# Text: The dehalogenation reaction is based on the hydroxylation of the carbon atom carrying the halogen by a spontaneous (base catalyzed) alpha-elimination reaction which leads to the formation of an aldehyde or ketone depending on the starting haloalkane. The expected reaction mechanism for the dehalogenation of a general alpha-haloalkane is described by the scheme:
# To test the feasibility of this approach, chloromethane was chosen as substrate for the dehalogenation reaction. Compared to other haloalkanes, chloromethane (CM) has the advantage to be moderately soluble in water (0.5 g/100 ml) and to lead to formaldehyde as end product of the hydroxylation/alpha-elimination reaction. Formaldehyde can be then readily detected by colorimetric reaction with Purpald as described previously. To test the reaction, two BM-3 mutants from later rounds of random mutagenesis, 35-E1141 and 20-D3, were incubated in the presence of CM and a cofactor regeneration system based on NADP^+, glucose-6-phosphate and glucose-6-phosphate dehydrogenase. Reactions with wild-type P450 BM-3 and without enzyme were included as controls.
# The reaction was repeated in the presence of additional BM-3 mutants, including 1-8H, 1-12G2 and the wild-type P450 BM-3 in which A328 was substituted with valine (BM-3-A328V) (FIG. 27B). […] Wild-type BM-3 was substituted with other amino acid residues at position […].
# The activity of BM-3-A328V on CM and other substrates such as HME, DME, and propane was further investigated by measuring product formation rate, cofactor consumption and coupling efficiency (Table 14). This mutant was also found to be capable to hydroxylate ethane to ethanol, although only for a total of about 5-10 turnovers. In Table 14 “consumption” rates are expressed as nmol NADPH/nmol enzyme/min and “product formation” rates are expressed as nmol product/nmol enzyme/min.
# [2] = Reactions on alkanes, total turnovers (Table 18): pentane; settings: pentane (5 C atoms)
# Description: (§1) Reactions on alkanes. Reactions with alkanes from pentane to decane were carried out at 3 mL-scale using 100 mM KPi pH 8.0 buffer containing 2% ethanol (to allow alkane solubilization) and purified protein. 2.5 mL KPi buffer were added with 60 μL of 90 mM alkane solution in ethanol (final conc.=1.8 mM), 150 μL enzyme solution at 1 μM (final conc.=50 nM), and 300 μL NADPH regeneration solution (100 units/mL isocitrate dehydrogenase, 70 mg/mL isocitrate, 1.5 mg/ml NADP^+). Vials were sealed and stirred for 24 hours at 4° C. 1 mL-aliquot of the reaction was removed, added with 10 μl internal standard (25 mM 1-bromohexane in ethanol), and extracted with 200 μl chloroform (30 sec vortexing, 1 min centrifugation at 10000 g). The organic phase was removed and analyzed by gas chromatography. Reactions with ethane, propane, and butane were carried out as described for longer alkanes with the only difference that alkane-saturated KPi buffer was used. Propane reactions with variants from HL5 and L9 libraries were performed on 1 mL-scale reaction using 20 nM enzyme to reduce oxygen limitation. Propane and butane reactions were analyzed by direct injection of reaction solution on the GC using 1-pentanol as internal standard. Ethane reaction products were functionalized (see below) and analyzed by GC using 1-butanol as internal standard. All measurements were performed in triplicate.
# (§2) Products from alkane reactions were identified and quantified by gas chromatography using authentic standards and calibration curves with internal standards. For the reactions with alkanes from pentane to decane, GC analyses were carried out using a Shimadzu GC-17A gas chromatograph, Agilent HP5 column (30 m×0.32 mm×0.1 μm film), 1 μL injection, FID detector, and the following separation program: 250° C. inlet, 250° C. detector, 50° C. oven for 3 min, 5° C./min gradient to 100° C., 25° C./min gradient to 230° C., and 230° C. for 3 min. For butane and propane (TTN) reactions, GC analyses were carried out using a Hewlett-Packard 5890 Series II Plus gas chromatograph, Supelco SPB-1 column (60 m×0.52 mm×0.5 μm film), 0.5 μL injection, FID detector, and the following separation program: 250° C. inlet, 275° C. detector, 80° C. oven for 2 min, 10° C./min gradient to 110° C., 25° C./min gradient to 275° C., and 275° C. for 2.5 min. For ethane and propane (rate) reactions, analysis of reaction mixtures was carried out by derivatization to alkyl nitrites followed by GC-ECD analysis. For laurate, reaction product analysis was carried out by derivatization with N-methyl-N-trimethylsilylheptafluorobutyramide followed by extraction with hexane. Organic solutions were analyzed by FID-GC.
# (§3) TTNs for each variant-substrate pair were determined using standardized reaction conditions (identical enzyme and substrate concentration, incubation time, cofactor regeneration system) (Table 18). TTN values were used to assess performance because TTN is a cumulative measure of both catalytic and coupling efficiency and because mutants were selected based on improvement in this property. To facilitate comparison among the variants, TTNs were normalized to the highest value in the series (MTN=Maximal Turnover Number) and plotted for the increasing-sized substrates (FIG. 38). A gradual shift of the enzyme's substrate preference during laboratory evolution is evident from these profiles. The marginal activity of wild-type BM3 on these substrates (MTN=150) is restricted to the long-chain alkanes, where it is a promiscuous function of BM3's high C12-C20 fatty acid hydroxylase activity. In the first evolutionary intermediates, substrate preference centers on medium-chain alkanes […], reflecting their selection for activity on octane. In 35E11, selected for activity on propane, preference still centers on C6-C8 alkanes but now extends towards the shorter ones, including propane. Propane activity becomes prevalent with the transition from variant ETS8 to 19A12. […]
# [3] = Reactions on alkanes, total turnovers (Table 18): octane; settings: octane (8 C atoms)
# Description: as §1, §2, §3
# [4] = Reactions on alkanes, total turnovers (Table 18): decane; settings: decane (10 C atoms)
# Description: as §1, §2, §3
# [5] = Reactions on alkanes, total turnovers (Table 18): heptane; settings: heptane (7 C atoms)
# Description: as §1, §2, §3
# [6] = Reactions on alkanes, total turnovers (Table 18): nonane; settings: nonane (9 C atoms)
# Description: as §1, §2, §3
# [7] = Reactions on alkanes, total turnovers (Table 18): ethane; settings: ethane (2 C atoms)
# Description: as §1, §2, §3
# [8] = TTN normalized to the highest value of the variant's series
# [9] = total turnovers, standardized reaction conditions
Molecule,colorimetric response (Purpald) [1],"% rel. act. [2, 8]","TTN [2, 9]","% rel. act. [3, 8]","TTN [3, 9]","% rel. act. [4, 8]","TTN [4, 9]","% rel. act. [5, 8]","TTN [5, 9]","% rel. act. [6, 8]","TTN [6, 9]","% rel. act. [7, 8]","TTN [7, 9]"
"20-D3: P450 BM-3 variant, SEQ ID NO:11; 35-E11 plus H285R (protein, mutant P450 20-D3 protein sequence, 35-E11 plus H285R) TIKEMPQPKTFGELKNLPLLNTDKPVQALMKIADELGEIFKFEAPGCVTRYLSSQRLIKEACDESRFDKNLSQALKFFRDFSGDGLFTSWTHEINWKKAHNILLPSFSQQAMKGYHAMMVDIAVQLVQKWERLNADEHIEVSEDMTRLTLDTIGLCGFNYRFNSFYRDQPHPFIISMVRALDEVMNKLQRANPDDPAYDENKRQCQEDIKVMNDLVDKIIADRKARGEQSDDLLTQMLNGKDPETGEPLDDGNISYQIITFLIAGHETTSGLLSFALYFLVKNPRVLQKVVEEAARVLVDPVPSYKQVKQLKYVGMVLNEALRLWPTFPAFSLYAKEDTVLGGEYPLEKGDEVMVLIPQLHRDKTIWGDDVEEFRPERFENPSAIPQHAFKPFGNGQRACIGQQFALHEATLVLGMMLKHFDFEDHTNYELDIKETLTLKPEGFVVKAKSKKIPLGGIPSPSTGQSAKKVRKKAENAHNTPLLVLYGSNMGTAEGTARDLADIAMSKGFAPQVATLDSHAGNLPREGAVLIVTASYNGHPPDNAKQFVDWLDQASADEVKGVRYSVFGCGDKNWATTYQKVPAFIDETLAAKGAENIADRGEADASDDFEGTYEEWREHMWSDVAAYFNLDIENSEDNKSTLSLQFVDSAADMPLAKMHGAFSTNVVASKELQQPGSARSTRHLEIELPKEASYQEGDHLGVIPRNYEGTVNRVTARFGLDASQQIRLEAEEEKLAHLPLAKTVSVEELLQYVELQDPVTRTQLRAMAAKTVCPPHKVELEALLEKQAYKEQVLAKRLTMLELLEKYPACEMKFSEFIALLPSIRPRYYSISSSPRVDEKQASITVSVVSGEAWSGYGEYKGIASNYLAELQEGDTITCFISTPQSEFTLPKDPETPLIMVGPGTGVAPFRGFVQARKQLKEQGQSLGEAHLYFGCRSPHEDYLYQEELENAQSEGIITLHTAFSRMPNQPKTYVQHVMEQDGKKLIELLDQGAHFYICGDGSQMAPAVEATLMKSYADVHQVSEADARLWLQQLEEKGRYAKDVWAG",specific colorimetric response,–,–,–,–,–,–,–,–,–,–,–,–
"P450PMO: P450 BM-3 variant, SEQ ID NO:125; 7-7 plus G443A and D698G; propane monooxygenase (protein, Mutant P450PMO protein sequence, 7-7 plus G443A and D698G; propane monooxygenase) TIKEMPQPKTFGELKNLPLLNTDKPVQALMKIADELGEIFKFEAPGCVTRYISSQRLIKEACDESRFDKNLSQELKFFRDFGGDGLFTSWTHEINWKKAHNILLPSFSQQAMKGYHAMMVDIAVQLVQKWERLNADEHIEVSEDMTRLTLDTIGLCGFNYRFNSFYRDQPHPFIISMVRALDEVMNKPQRANPDDPAYDENKRQCQEDIKVMNDLVDKIIADRKARGEQSDDLLTQMLNGKDPETGEPLDDGNISYQIITFLIAGHETTSGLLSFALYFLVKNPHVLQKVVEEAARVLVDPVPSYKQVKQLKYVGMVLNEALRLWPTFPAFSLYAKEDTVLGGEYPLEKGDEVMVLIPQLHRDKTVWGDDVEEFRPERFENPSAIPQHAFKPFGNGQRACIGQQFALHEATLVLGMMLKHFDFEDHTNYELDIKETLTLKPEAFVVKAKSKKIPLGGIPSPSTGQSAKKVRKKAENAHNTPLLVLYGSNMGTAEGTARDLADIAMSKGFAPQVATLDSHAGNLPREGAVLIVTASYNGHPPDNAKQFVDWLDQASADEVKGVRYSVFGCGDKNWATTYQKVPAFIDETLAAKGAENIADRGEADASDDFEGTYEEWREHMWSDVAAYFNLDIENSEDNKSTLSLQFVDSAADMPLAKMHGAFSTNVVASKELQQPGSARSTRHLEIELPKEASYQEGGHLGVIPRNYEGTVNRVTARFGLDASQQIRLEAEEEKLAHLPLAKTVSVEELLQYVELQDPVTRTQLRAMAAKTVCPPHKVELEALLEKQAYKEQVLAKRLTMLELLEKYPACEMKFSEFIALLPSIRPRYYSISSSPRVDEKQASITVSVVSGEAWSGYGEYKGIASNYLAELQEGDTITCFISTPQSEFTLPKDPETPLIMVGPGTGVAPFRGFVQARKQLKEQGQSLGEAHLYFGCRSPHEDYLYQEELENAQSEGIITLHTAFSRMPNQPKTYVQHVMEQDGKKLIELLDQGAHFYICGDGSQMAPAVEATLMKSYADVHQVSEADARLWLQQLEEKGRYAKDVWAG",–,4.9%,1000 ± 110,9.2%,1880 ± 60,5.3%,1080 ± 30,14.6%,2990 ± 165,11.7%,2390 ± 30,12.4%,2550 ± 250

# Reference: patent US12258605B2, “Alkane oxidation by modified hydroxylases” (The California Institute of Technology, priority 2005, dated 2025)
